What was measured:
human CD40 [1] = biological target: T1, human CD40 (human, UniProt P25942 21-277); assay: FACS on JY cells expressing CD40; 100 µl PER.C6 transient supernatant harvested after 48 h (antibody concentration not equalised), FITC anti-human IgG 1/100; in the same figure Mock Control Mean 11.25 / Median 8.74, FACS control (secondary only) Mean 10.18 / Median 8.74
T1 construct: whole, on cells; also called huCD40; CD40 expressed on JY cells
Procedure: (§1) FIG. 8. FACS analysis using JY cells. PER.C6 cell supernatant of the transient expressed variants (Q5E, K13A, E16Q, T17S, I29L, 37V, P45L, M48L, STS60NSA, T68S, S79F, and T108S) of 5D12 was harvested after 48 h. As control also supernatant was harvested of cells transfected with either ch5D12 or D15D12 together with supernatant from mock (no plasmid) transfected cells. Binding of expressed antibodies was tested by FACS using JY cells together with anti-human FITC labelled secondary antibody (1/100 diluted). As FACS control JY cells were incubated with only the secondary FITC labelled antibody.
(§2) By FACS analysis the antigen specificity of the expressed antibodies was analyzed. JY cells are EBV transformed human B-cells, which express CD40. Briefly, 100,000 JY cells were incubated with 100 µl supernatant from the transient expression experiment at 4° C. for 20 minutes. To remove unbound antibody cells were washed with PBS containing 0.05% NaAzide and 1% BSA. As secondary antibody 1/100 diluted FITC labeled anti-human IgG (Jackson 109-095-127) was used. After 20 minutes incubation at 4° C. cells were washed. Finally cell samples were measured on a FACScan (BD).

human CD40 [2] = biological target: T1, human CD40; assay: FACS on JY cells expressing CD40; 100 µl PER.C6 transient supernatant harvested after 48 h (antibody concentration not equalised), FITC anti-human IgG 1/100; in the same figure Mock Control Mean 11.25 / Median 8.74, FACS control (secondary only) Mean 10.18 / Median 8.74 [Condt.]
Procedure: as §1, §2

T1 sequence (P25942 21-277): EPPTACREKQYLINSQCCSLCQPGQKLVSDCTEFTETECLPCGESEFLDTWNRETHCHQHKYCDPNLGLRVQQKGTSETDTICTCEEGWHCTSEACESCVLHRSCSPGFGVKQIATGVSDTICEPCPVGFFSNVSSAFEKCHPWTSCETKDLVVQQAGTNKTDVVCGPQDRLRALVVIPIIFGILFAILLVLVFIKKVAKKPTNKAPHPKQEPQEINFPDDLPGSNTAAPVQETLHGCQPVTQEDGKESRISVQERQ

| Binder | Mean (FL1-H) (human CD40 [1]) | Median (FL1-H) (human CD40 [1]) | Mean (FL1-H) (human CD40 [2]) | Median (FL1-H) (human CD40 [2]) |
| --- | --- | --- | --- | --- |
| E16Q variant of deimmunised 5D12 (antibody, human IgG4, V domains shown, VH on a human IgG4 backbone) VH: QVKLQESGPGLVKPSQTLSITCTVSGFSISRYSVYWIRQPPGKGPEWMGMMWGGGSTDYSTSLKSRLTISKDTSKSQVSLKMNSLRTDDTAMYYCVRTDGDYWGQGTTVTVSS VL: ELQLTQSPLSLPVTLGQPASISCRSSQSLANSNGNTYLHWYLQRPGQSPRLLIYKVSNRFSGVPDRFSGSGSGTDFTLKISRVEAEDVGVYYCSQSTHVPWTFGGGTKLEIKR | 39.5 | 38.2 | – | – |
| T17S variant of deimmunised 5D12 (antibody, human IgG4, V domains shown, VH on a human IgG4 backbone) VH: QVKLQESGPGLVKPSESLSITCTVSGFSISRYSVYWIRQPPGKGPEWMGMMWGGGSTDYSTSLKSRLTISKDTSKSQVSLKMNSLRTDDTAMYYCVRTDGDYWGQGTTVTVSS VL: ELQLTQSPLSLPVTLGQPASISCRSSQSLANSNGNTYLHWYLQRPGQSPRLLIYKVSNRFSGVPDRFSGSGSGTDFTLKISRVEAEDVGVYYCSQSTHVPWTFGGGTKLEIKR | 33.4 | 31.9 | – | – |
| Q5E variant of deimmunised 5D12 (antibody, human IgG4, V domains shown, VH on a human IgG4 backbone) VH: QVKLEESGPGLVKPSETLSITCTVSGFSISRYSVYWIRQPPGKGPEWMGMMWGGGSTDYSTSLKSRLTISKDTSKSQVSLKMNSLRTDDTAMYYCVRTDGDYWGQGTTVTVSS VL: ELQLTQSPLSLPVTLGQPASISCRSSQSLANSNGNTYLHWYLQRPGQSPRLLIYKVSNRFSGVPDRFSGSGSGTDFTLKISRVEAEDVGVYYCSQSTHVPWTFGGGTKLEIKR | 39 | 37.5 | – | – |
| K13A variant of deimmunised 5D12 (antibody, human IgG4, V domains shown, VH on a human IgG4 backbone) VH: QVKLQESGPGLVAPSETLSITCTVSGFSISRYSVYWIRQPPGKGPEWMGMMWGGGSTDYSTSLKSRLTISKDTSKSQVSLKMNSLRTDDTAMYYCVRTDGDYWGQGTTVTVSS VL: ELQLTQSPLSLPVTLGQPASISCRSSQSLANSNGNTYLHWYLQRPGQSPRLLIYKVSNRFSGVPDRFSGSGSGTDFTLKISRVEAEDVGVYYCSQSTHVPWTFGGGTKLEIKR | 31.2 | 30 | – | – |
| I37V variant of deimmunised 5D12 (antibody, human IgG4, V domains shown, VH on a human IgG4 backbone; also called 137V; 29I-37V) VH: QVKLQESGPGLVKPSETLSITCTVSGFSISRYSVYWVRQPPGKGPEWMGMMWGGGSTDYSTSLKSRLTISKDTSKSQVSLKMNSLRTDDTAMYYCVRTDGDYWGQGTTVTVSS VL: ELQLTQSPLSLPVTLGQPASISCRSSQSLANSNGNTYLHWYLQRPGQSPRLLIYKVSNRFSGVPDRFSGSGSGTDFTLKISRVEAEDVGVYYCSQSTHVPWTFGGGTKLEIKR | 96 | 82 | – | – |

More lines, now with the values ahead:

| Mean (FL1-H) (human CD40 [1]) | Median (FL1-H) (human CD40 [1]) | Mean (FL1-H) (human CD40 [2]) | Median (FL1-H) (human CD40 [2]) | Binder |
| --- | --- | --- | --- | --- |
| – | – | 35.2 | 34 | T68S variant of deimmunised 5D12 (antibody, human IgG4, V domains shown, VH on a human IgG4 backbone) VH: QVKLQESGPGLVKPSETLSITCTVSGFSISRYSVYWIRQPPGKGPEWMGMMWGGGSTDYSTSLKSRLSISKDTSKSQVSLKMNSLRTDDTAMYYCVRTDGDYWGQGTTVTVSS VL: ELQLTQSPLSLPVTLGQPASISCRSSQSLANSNGNTYLHWYLQRPGQSPRLLIYKVSNRFSGVPDRFSGSGSGTDFTLKISRVEAEDVGVYYCSQSTHVPWTFGGGTKLEIKR |
| – | – | 82.5 | 74.3 | P45L variant of deimmunised 5D12 (antibody, human IgG4, V domains shown, VH on a human IgG4 backbone) VH: QVKLQESGPGLVKPSETLSITCTVSGFSISRYSVYWIRQPPGKGLEWMGMMWGGGSTDYSTSLKSRLTISKDTSKSQVSLKMNSLRTDDTAMYYCVRTDGDYWGQGTTVTVSS VL: ELQLTQSPLSLPVTLGQPASISCRSSQSLANSNGNTYLHWYLQRPGQSPRLLIYKVSNRFSGVPDRFSGSGSGTDFTLKISRVEAEDVGVYYCSQSTHVPWTFGGGTKLEIKR |
| – | – | 80.3 | 72.3 | M48L variant of deimmunised 5D12 (antibody, human IgG4, V domains shown, VH on a human IgG4 backbone) VH: QVKLQESGPGLVKPSETLSITCTVSGFSISRYSVYWIRQPPGKGPEWLGMMWGGGSTDYSTSLKSRLTISKDTSKSQVSLKMNSLRTDDTAMYYCVRTDGDYWGQGTTVTVSS VL: ELQLTQSPLSLPVTLGQPASISCRSSQSLANSNGNTYLHWYLQRPGQSPRLLIYKVSNRFSGVPDRFSGSGSGTDFTLKISRVEAEDVGVYYCSQSTHVPWTFGGGTKLEIKR |
| – | – | 62.4 | 58.8 | STS60NSA variant of deimmunised 5D12 (antibody, human IgG4, V domains shown, VH on a human IgG4 backbone) VH: QVKLQESGPGLVKPSETLSITCTVSGFSISRYSVYWIRQPPGKGPEWMGMMWGGGSTDYNSALKSRLTISKDTSKSQVSLKMNSLRTDDTAMYYCVRTDGDYWGQGTTVTVSS VL: ELQLTQSPLSLPVTLGQPASISCRSSQSLANSNGNTYLHWYLQRPGQSPRLLIYKVSNRFSGVPDRFSGSGSGTDFTLKISRVEAEDVGVYYCSQSTHVPWTFGGGTKLEIKR |
| – | – | 99 | 85.8 | T108S variant of deimmunised 5D12 (antibody, human IgG4, V domains shown, VH on a human IgG4 backbone) VH: QVKLQESGPGLVKPSETLSITCTVSGFSISRYSVYWIRQPPGKGPEWMGMMWGGGSTDYSTSLKSRLTISKDTSKSQVSLKMNSLRTDDTAMYYCVRTDGDYWGQGTSVTVSS VL: ELQLTQSPLSLPVTLGQPASISCRSSQSLANSNGNTYLHWYLQRPGQSPRLLIYKVSNRFSGVPDRFSGSGSGTDFTLKISRVEAEDVGVYYCSQSTHVPWTFGGGTKLEIKR |
| – | – | 96.4 | 82 | S79F variant of deimmunised 5D12 (antibody, human IgG4, V domains shown, VH on a human IgG4 backbone) VH: QVKLQESGPGLVKPSETLSITCTVSGFSISRYSVYWIRQPPGKGPEWMGMMWGGGSTDYSTSLKSRLTISKDTSKSQVFLKMNSLRTDDTAMYYCVRTDGDYWGQGTTVTVSS VL: ELQLTQSPLSLPVTLGQPASISCRSSQSLANSNGNTYLHWYLQRPGQSPRLLIYKVSNRFSGVPDRFSGSGSGTDFTLKISRVEAEDVGVYYCSQSTHVPWTFGGGTKLEIKR |

Reference: patent US8669352 (PANGENETICS B V, dated 2014)
